Measurements as given in paper PMC7810697, “Sarcolipin alters SERCA1a interdomain communication by impairing binding of both calcium and ATP” (Scientific Reports, 2021).

How the values were obtained:
[1] = molecular target: T1, DDM-solubilized SR (native SERCA1a) (Oryctolagus cuniculus, UniProt P04191); assay: Kinetics of phosphorylation from [γ32P]ATP, DDM-solubilized SR; assay type: biochemical, rabbit; settings: calcium-deprived state
T1 construct: DDM-solubilized native SERCA1a purification; from tissue; host or cells: rabbit skeletal muscle sarcoplasmic reticulum
Experimental: (§1) Transient formation of the phosphoenzyme intermediate was measured after incubation with [γ^32P]ATP followed by acid quenching, and filtration. For most experiments, 50 µL of enzyme at 10 µg/mL in a buffer containing 50 mM Tes-Tris pH7.5, 1 mM KCl, 5 mM MgCl2, 20% glycerol (w/w) and 0.5 mg/mL DDM, supplemented or not with SLN, was stored on ice. Concentrations of EGTA and calcium are specified in figure legends in order to reach the appropriate [Ca^2+]free and therefore the desired starting state for the ATPase. For kinetics of phosphorylation, we initiate reaction by addition of 2 µM [γ^32P]ATP (5 mCi/µmole), and calcium at 100 µM when specified. Reaction was quenched by addition of 2 mL of cold quenching medium (500 mM TCA + 30 mM H3P0_4) under vigorous mixing, and immediately stored on ice for 20–30 min to improve precipitation, a period of time critical for retention of the precipitate on the filter in presence of detergent. This was followed by filtration on GS filters (Millipore, Saint Quentin-Fallavier, France) and careful rinsing of the filters with diluted quenching medium (50 mM TCA + 3 mM H3P0_4). The amount of radioactivity bound to the filter was estimated by liquid scintillation counting (Perkin Elmer TriCarb Counter). […]

[2] = molecular target: T1, DDM-solubilized SR (native SERCA1a); assay: Vanadate inhibition of phosphoenzyme formation, DDM-solubilized SR; assay type: biochemical, rabbit; settings: Suppl. Fig. 7
Experimental: as §1

B1: SR: DDM-solubilized native rabbit sarco-endoplasmic reticulum SERCA1a, still containing native SLN (protein)
chain: MEAAHSKSTEECLAYFGVSETTGLTPDQVKRHLEKYGHNELPAEEGKSLWELVIEQFEDLLVRILLLAACISFVLAWFEEGEETITAFVEPFVILLILIANAIVGVWQERNAENAIEALKEYEPEMGKVYRADRKSVQRIKARDIVPGDIVEVAVGDKVPADIRILSIKSTTLRVDQSILTGESVSVIKHTEPVPDPRAVNQDKKNMLFSGTNIAAGKALGIVATTGVSTEIGKIRDQMAATEQDKTPLQQKLDEFGEQLSKVISLICVAVWLINIGHFNDPVHGGSWIRGAIYYFKIAVALAVAAIPEGLPAVITTCLALGTRRMAKKNAIVRSLPSVETLGCTSVICSDKTGTLTTNQMSVCKMFIIDKVDGDFCSLNEFSITGSTYAPEGEVLKNDKPIRSGQFDGLVELATICALCNDSSLDFNETKGVYEKVGEATETALTTLVEKMNVFNTEVRNLSKVERANACNSVIRQLMKKEFTLEFSRDRKSMSVYCSPAKSSRAAVGNKMFVKGAPEGVIDRCNYVRVGTTRVPMTGPVKEKILSVIKEWGTGRDTLRCLALATRDTPPKREEMVLDDSSRFMEYETDLTFVGVVGMLDPPRKEVMGSIQLCRDAGIRVIMITGDNKGTAIAICRRIGIFGENEEVADRAYTGREFDDLPLAEQREACRRACCFARVEPSHKSKIVEYLQSYDEITAMTGDGVNDAPALKKAEIGIAMGSGTAVAKTASEMVLADDNFSTIVAAVEEGRAIYNNMKQFIRYLISSNVGEVVCIFLTAALGLPEALIPVQLLWVNLVTDGLPATALGFNPPDLDIMDRPPRSPKEPLISGWLFFRYMAIGGYVGAATVGAAAWWFMYAEDGPGVTYHQLTHFMQCTEDHPHFEGLDCEIFEAPEPMTMALSVLVTIEMCNALNSLSENQSLMRMPPWVNIWLLGSICLSMSLHFLILYVDPLPMIFKLKALDLTQWLMVLKISLPVIGLDEILKFIARNYLEG
- maximum level of phosphorylated intermediate, DDM-solubilized SR ([1]; Suppl. Fig. 5A): 6.39+/-0.20 nmoles EP/mg ATPase
- t1/2 of phosphorylation, DDM-solubilized SR ([1]; no SLN added (native SLN present), three replicates from two independent experiments, p<0.0001 vs recS1a alone, p=0.002 vs recS1a+Palm-SLN or recS1a+SLN): 10.4 s⁻¹
- EPmax (vanadate series), DDM-solubilized SR [2]: 3.66+/-0.54 nmoles/mg of ATPase
